Measured values as given in doi:10.1101/2021.03.03.433722.

Target: MvaT F36D/M44D (P. aeruginosa) (UniProt Q9HW86)
Assay: ITC

Substance: gp4 of Pseudomonas phage LUZ24 (natural protein)
- Kd: 170 nM
- stoichiometry N: 0.56

Substance: gp4 K42E/K45E (natural protein)
- Kd: 1360 nM
- stoichiometry N: 0.52
